According to article PMC2615086 (The Journal of Cell Biology, 2009):

Target: T1, Fic1-His6 (S. pombe, UniProt O94701 1-272)
T1 sequence: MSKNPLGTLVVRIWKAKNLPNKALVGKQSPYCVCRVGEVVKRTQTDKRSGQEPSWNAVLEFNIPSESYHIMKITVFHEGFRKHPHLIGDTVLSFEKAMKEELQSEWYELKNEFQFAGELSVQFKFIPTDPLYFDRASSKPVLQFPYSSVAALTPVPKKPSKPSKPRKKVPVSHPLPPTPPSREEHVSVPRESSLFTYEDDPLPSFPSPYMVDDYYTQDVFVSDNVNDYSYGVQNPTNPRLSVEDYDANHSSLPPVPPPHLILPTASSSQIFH
Test: quantitative in vitro binding

B1: MBP-Cdc15SH3 (domain or fragment)
chain: SSMSLYGEYNKSQPQLSMQRSVSPNPLGPNRRSSSVLQSQKSTSSNTSNRNNGGYSGSRPSSEMGHRYGSMSGRSMRQVSQRSTSRARSPEPTNRNSVQSKNVDPRATFTAEGEPILGYVIALYDYQAQIPEEISFQKGDTLMVLRTQEDGWWDGEIINVPNSKRGLFPSNFVQTV
Question: How did the Kd turn out when B1 was run?
Answer: ~3000 nM
